Measured values reported in patent US20110318339A1.

Columns and labels:
[1] = target: rHuman EGF R/Fc Chimera, CF (Cat# 344-ER, R&D Systems) (human) (UniProt P00533); experiment: Multispot ECL; Fab 6 nM; blank 191
[2] = target: rHuman ErbB2/Fc Chimera, CF (Cat# 1129-ER, R&D Systems) (human) (UniProt P04626); experiment: Multispot ECL; Fab 6 nM; blank 191
[3] = target: rHuman HGF R/c-MET/Fc Chimera, CF (Cat# 358-MT/CF, R&D Systems) (human) (UniProt P08581); experiment: Multispot ECL; Fab 6 nM; blank 191
[4] = target: rHuman IGF-1 sR, (IGF-1 sR), CF (Cat# 391-GR, R&D Systems) (human) (UniProt P08069); experiment: Multispot ECL; Fab 6 nM; blank 191
[5] = target: rHuman EGF R/Fc Chimera, CF (Cat# 344-ER, R&D Systems) (human) (UniProt P00533); experiment: Multispot ECL; Fab 17 nM; blank 143
[6] = target: rHuman ErbB2/Fc Chimera, CF (Cat# 1129-ER, R&D Systems) (human) (UniProt P04626); experiment: Multispot ECL; Fab 17 nM; blank 143
[7] = target: rHuman HGF R/c-MET/Fc Chimera, CF (Cat# 358-MT/CF, R&D Systems) (human) (UniProt P08581); experiment: Multispot ECL; Fab 17 nM; blank 143
[8] = target: rHuman IGF-1 sR, (IGF-1 sR), CF (Cat# 391-GR, R&D Systems) (human) (UniProt P08069); experiment: Multispot ECL; Fab 17 nM; blank 143
[9] = target: rHuman EGF R/Fc Chimera, CF (Cat# 344-ER, R&D Systems) (human) (UniProt P00533); experiment: Multispot ECL; Fab 51 nM; blank 335
[10] = target: rHuman ErbB2/Fc Chimera, CF (Cat# 1129-ER, R&D Systems) (human) (UniProt P04626); experiment: Multispot ECL; Fab 51 nM; blank 335
[11] = target: rHuman HGF R/c-MET/Fc Chimera, CF (Cat# 358-MT/CF, R&D Systems) (human) (UniProt P08581); experiment: Multispot ECL; Fab 51 nM; blank 335
[12] = target: rHuman IGF-1 sR, (IGF-1 sR), CF (Cat# 391-GR, R&D Systems) (human) (UniProt P08069); experiment: Multispot ECL; Fab 51 nM; blank 335
[13] = target: rHuman EGF R/Fc Chimera, CF (Cat# 344-ER, R&D Systems) (human) (UniProt P00533); experiment: Multispot ECL; Fab 154 nM; blank 447
[14] = target: rHuman ErbB2/Fc Chimera, CF (Cat# 1129-ER, R&D Systems) (human) (UniProt P04626); experiment: Multispot ECL; Fab 154 nM; blank 447
[15] = target: rHuman HGF R/c-MET/Fc Chimera, CF (Cat# 358-MT/CF, R&D Systems) (human) (UniProt P08581); experiment: Multispot ECL; Fab 154 nM; blank 447
[16] = target: rHuman IGF-1 sR, (IGF-1 sR), CF (Cat# 391-GR, R&D Systems) (human) (UniProt P08069); experiment: Multispot ECL; Fab 154 nM; blank 447

B1: Fab VH5-51_IGHD5-18*01>3_IGHJ4*01 & V3-4_IGLJ1*01 (Fab, V domains shown)
VH: EVQLVQSGAEVKKPGESLKISCKGSGYSFTSYWIGWVRQMPGKGLEWMGIIYPGDSDTRYSPSFQGQVTISADKSISTAYLQWSSLKASDTAMYYCARRGYSYGYDYFDYWGQGTLVTVSS
VL: QTVVTQEPSFSVSPGGTVTLTCGLSSGSVSTSYYPSWYQQTPGQAPRTLIYSTNTRSSGVPDRFSGSILGNKAALTITGAQADDESDYYCVLYMGSGISYVFGTGTKVTVL
ECL signal [1]: 742 | ECL signal [2]: 873 | ECL signal [3]: 831 | ECL signal [4]: 854 | ECL signal [5]: 805 | ECL signal [6]: 1030 | ECL signal [7]: 914 | ECL signal [8]: 872 | ECL signal [9]: 816 | ECL signal [10]: 1250 | ECL signal [11]: 1040 | ECL signal [12]: 1050 | ECL signal [13]: 1400 | ECL signal [14]: 1590 | ECL signal [15]: 1520 | ECL signal [16]: 1400
